Laboratory results taken from paper PMC11480844.

B1: H2-Kb / G2 (parent)
chain 1: GEQVEQRPPHLSVREGDSAVIICTYTDPNSYYFFWYKQEPGAGLQLLMKVFSSTEINEGQGFTVLLNKKDKQLSLNLTAAHPGDSAVYFCAVRTNQGGRALIFGTGTTVSVSP
chain 2: EAAVTQSPRSKVAVTGGKVTLSCHQTNNHDYMYWYRQDTGHGLRLIHYSYVADSTEKGDIPDGYKASRPSQENFSLILELASLSQTAVYFCASSGTDTEVFFGKGTRLTVV
chain 3: not shown
chain 4: IQKTPQIQVYSRHPPENGKPNILNCYVTQFHPPHIEIQMLKNGKKIPKVEMSDMSFSKDWSFYILAHTEFTPTETDTYACRVKHDSMAEPKTVYWDRDM
chain 5: SIINFEKL
B2: H2-Kb / H6 (parent)
chain 1: AQKVTQTQTSISVMEKTTVTMDCVYETQDSSYFLFWYKQTASGEIVFLIRQDSYKKENATVGHYSLNFQKPKSSIGLIITATQIEDSAVYFCAMRDYNQGKLIFGQGTKLSIKP
chain 2: EAAVTQSPRSKVAVTGGKVTLSCHQTNNHDYMYWYRQDTGHGLRLIHYSYVADSTEKGDIPDGYKASRPSQENFSLILELASLSQTAVYFCASSGTAANSDYTFGSGTRLLVI
chain 3: not shown
chain 4: B1 chain 4
chain 5: SIINFEKL

Variants of: B1
Assay: % of reporter cells activated (NFAT-GFP), raw
Conditions: with G2; scale: % of reporter cells activated
Also: test concentration or dose not given here.

Ratio to parent: each site, then its substitutions
chain 5 E6: W 1.31; V 1.7; P 1.53; R 1.34; H 1.36; D 1.28; L 1.08; S 1.01; M 1.15; A 1.9; F 1.36; K 1.3; N 1.39; C 1.18; Q 1.41; Y 1.71; G 1.29; I 1.02; T 1.73
chain 5 I3: S 0.936; K 1.5; M 1.88; P 1.44; G 1.39; T 0.992; L 1.34; E 1.55; Q 1.03; F 1.19; W 1.3; C 1.38; N 1.53; D 1.26; R 0.8; V 0.968; H 1.18; A 1.42
chain 5 F5: M 1.31; T 1.06; W 1.15; A 1.38; N 0.984; L 1.46; H 1.51; Y 1.62; R 0.864; K 1.36; C 1.4; V 1.42; G 1.23; D 1.77; P 1.42; Q 1.24; S 0.88; E 1.34; I 1.06
chain 5 I2: Y 1.54; L 1.25; T 1.56; C 1.06; A 1.66; S 1.32; H 1.31; E 1.41; P 1.65; N 1.11; G 0.928; V 1.18; Q 1.13; W 1.18; R 1.01; K 1.16; F 1.32; D 1.58; M 0.88

Variants of: B2
Assay: % of reporter cells activated (NFAT-GFP), raw
Conditions: with H6; scale: % of reporter cells activated

Ratio to parent of substitutions, site by site:
chain 5 F5: D 0.192; Y 0.516; W 0.795; E 0.163; K 0.173; Q 0.495; A 0.809; L 0.863; I 0.711; C 1.01; S 0.6; P 0.546; V 0.796; G 0.381
chain 5 E6: Y 0.0997; Q 0.0813; A 0.0933; W 0.084; H 0.0877; L 0.0813; C 0.0748; N 0.102; K 0.131; G 0.168; I 0.0822
chain 5 S1: A 0.556; G 0.517; Q 0.602; C 0.188; V 0.294; K 0.384; N 0.416
chain 5 K7: E 0.122; P 0.11; H 0.809; Y 0.162; L 0.112; V 0.261; F 0.111; C 0.125; N 0.0979; I 0.231; M 0.188; R 1.36
chain 5 N4: C 0.206; S 0.295; M 0.111; L 0.146; K 0.126; Y 0.358; E 0.2; H 0.91; V 0.0988; P 0.519; A 0.202; D 0.132; Q 0.117
chain 5 I2: V 1.54; D 1.01; P 0.351; F 0.733; H 0.243; W 0.585; L 1.29; T 1.49; Y 0.408; A 1.5; K 0.24
chain 5 L8: C 0.28; F 0.32; K 0.13; D 0.209; H 0.825; S 0.129; M 0.538; W 0.248; N 0.433; R 0.406; V 0.537; Y 0.729
chain 5 I3: G 0.962; S 0.872; R 0.295; C 1.57; T 0.955; H 0.61; D 0.149; Q 1.11; N 1.09; P 1.18; M 1.62; F 0.342
